We go through one molecule from article PMC9882600, “Asymmetric gating of a human hetero-pentameric glycine receptor” (Research Square, 2023).

Data set [1] concerns the molecule itself. The data set can be described thus: cryo-EM structure; α1emβem GlyR co-expressed and purified as a complex, 6 mg/ml in 20 mM Tris pH 8.0, 200 mM NaCl, 0.06% digitonin; vitrified without ligand (apo) or after 1 h with 2 mM glycine on ice (open, expanded-open, desensitized classes); ~3 mM fluorinated fos-choline 8 added before freezing.
The target in data set [2] is human glycine receptor β subunit, cryo-EM construct βem (human) (UniProt P48167). Described as above.

One may read the stoichiometry N as the number of molecules, sites or subunits per partner or assembly.

human glycine receptor β subunit, cryo-EM construct βem (human), sequence (P48167 23-497): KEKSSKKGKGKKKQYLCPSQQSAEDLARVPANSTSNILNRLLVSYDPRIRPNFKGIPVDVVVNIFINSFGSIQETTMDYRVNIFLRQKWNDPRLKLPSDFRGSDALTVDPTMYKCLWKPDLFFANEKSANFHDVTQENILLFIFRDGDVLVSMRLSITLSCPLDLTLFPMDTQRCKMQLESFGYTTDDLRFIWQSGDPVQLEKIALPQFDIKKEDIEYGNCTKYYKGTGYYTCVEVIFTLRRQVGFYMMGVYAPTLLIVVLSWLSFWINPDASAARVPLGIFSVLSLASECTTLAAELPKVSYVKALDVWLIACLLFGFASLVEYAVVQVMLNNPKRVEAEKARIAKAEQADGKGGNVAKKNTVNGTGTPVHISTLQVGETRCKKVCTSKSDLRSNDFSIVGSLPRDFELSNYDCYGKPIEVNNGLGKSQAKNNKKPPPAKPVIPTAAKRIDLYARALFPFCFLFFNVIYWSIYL

B1: human glycine receptor α1 subunit, cryo-EM construct α1em (receptor)
chain: ARSAPKPMSPSDFLDKLMGRTSGYDARIRPNFKGPPVNVSCNIFINSFGSIAETTMDYRVNIFLRQQWNDPRLAYNEYPDDSLDLDPSMLDSIWKPDLFFANEKGAHFHEITTDNKLLRISRNGNVLYSIRITLTLACPMDLKNFPMDVQTCIMQLESFGYTMNDLIFEWQEQGAVQVADGLTLPQFILKEEKDLRYCTKHYNTGKFTCIEARFHLERQMGYYLIQMYIPSLLIVILSWISFWINMDAAPARVGLGITTVLTMTTQSSGSRASLPKVSYVKAIDIWMAVCLLFVFSALLEYAAVNFVSRQHKELLGSSGEEMRKLFIQRAKKIDKISRIGFPMAFLIFNMFYWIIYKIVRREDVHNQ
notes: glycine receptor α1 subunit, human, NCBI NP_001139512.1; residues before the M3/M4 loop stretch R316-P381 that was replaced by GSSG; the lists of unbuilt residues begin at A1 and give 367 aa in total; linker that replaces the M3/M4 loop residues R316-P381; residues after the replaced M3/M4 loop stretch, to Q429 (last residue named in the lists of unbuilt residues); Four copies stand in the …
For the molecule B1, the binding result in data set [1] is “binds”. For the same molecule, the stoichiometry N in data set [2] was 4 α1:β.
